Consider 1 molecule from US20060115839A1 (published 2006).

In this experiment the target is endogenous histone H3 in U2OS cells (human, UniProt P68431 2-136). The experiment in a line: formaldehyde crosslinking in irradiated U2OS cells, nickel bead capture, H3 immunoblot (FIG. 3g). As to the method: Non-transfected U2OS osteosarcoma cells and transfected U2OS cells expressing His-tagged GFP-53BP1 fusion proteins with wild-type or mutant (Asp1521Arg) 53BP1 sequences were pre-extracted with Triton-X100 in situ 15 min after irradiation and then treated with formaldehyde to crosslink interacting proteins. His-tagged GFP-53BP1 was then affinity-purified on nickel-coated beads and bound histone H3 was detected by immunoblotting after the crosslinks were reversed by boiling. Histone H3 was captured on beads incubated with extracts from His-tagged GFP-wild-type 53BP1 expressing cells treated with formaldehyde, but not on beads incubated with extracts from cells that were mock-crosslinked or that were expressing the Asp1521Arg mutant protein (FIG. 3g). Further, the crosslinking was specific for histone H3, because histone H2A, although present in the Triton-X100 insoluble material, was not captured by the beads (data not shown).
Proteins were crosslinked with formaldehyde³⁰. Parental U2OS cells and U2OS cells expressing N-terminally His-tagged GFP-53BP1 fusion proteins containing residues 1220-1711 of 53BP1 were exposed to 9 Gy IR. […] Histone H3 was detected by immunoblotting after the crosslinks were reversed by boiling.
(Immunoblotting shows a protein as a band on a membrane.)

B1: N-terminally His-tagged GFP-53BP1 fusion protein containing residues 1220-1711 of 53BP1 with Asp1521Arg (other)
chain: QGEEEFDMPQPPHGHVLHRHMRTIREVRTLVTRVITDVYYVDGTEVERKVTEETEEPIVECQECETEVSPSQTGGSSGDLGDISSFSSKASSLHRTSSGTSLSAMHSSGSSGKGAGPLRGKTSGTEPADFALPSSRGGPGKLSPRKGVSQTGTPVCEEDGDAGLGIRQGGKAPVTPRGRGRRGRPPSRTTGTRETAVPGPLGIEDISPNLSPDDKSFSRVVPRVPDSTRRTDVGAGALRRSDSPEIPFQAAAGPSDGLDASSPGNSFVGLRVVAKWSSNGYFYSGKITRDVGAGKYKLLFDRGYECDVLGKDILLCDPIPLDTEVTALSEDEYFSAGVVKGHRKESGELYYSIEKEGQRKWYKRMAVILSLEQGNRLREQYGLGPYEAVTPLTKAADISLDNLVEGKRKRRSNVSSPATPTASSSSSTTPTRKITESPRASMGVLSGKRKLITSEEERSPAKRGRKSATVKPGAVGAGEFVSPCESGDNTGE
notes: Expressed in U2OS cells; crosslinked in situ with formaldehyde; also called His-tagged GFP-53BP1 D1521R; Asp1521Arg mutant protein; not shown: N-terminal His tag and GFP, with any linkers
As for B1, the binding result is listed as “no binding”.
